# Source: the supplement of paper PMC10126150
# ± gives the standard deviation of the averaged measurements.
# Tested on: ATP
# Assay: switch fluorescence ratio, 500 uM ATP over buffer (Cy3 cluster intensity, sum of 5 cycles each) (fold (ratio)); higher = stronger signal-on switching upon ATP binding; sequences stand for … in TCGTCGGCAGCGTCAGATGTGTATAAGAGACAGTTTTTTTTTTTTTTTTTTTTTTTTT…TC
# Conditions: aptamer strand: ATP DNA aptamer (quencher-CACCTGGGGGAGTATTGCGGAGGAAGG + anchor), 100 nM annealed; ATP concentration: 500 uM
# In short: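 Clusters with intensities outside 100-1000 RFU were excluded. The remaining Cy3-labelled switching-strand clusters on a modified Illumina MiSeq flow-cell had been annealed to 100 nM quencher-labelled ATP aptamer and imaged in selection buffer, then after 15 min with 500 uM ATP at 22 °C, for five cycles separated by NaOH stripping and re-annealing. The fluorescence ratio, averaged per switch-domain sequence, is each cluster's summed target-cycle Cy3 intensity over its summed buffer-cycle Cy3 intensity.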
# 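Note: ATP exposure 15 min at 22 °C before imaging.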
row,Sequence,switch fluorescence ratio
1,TTTCCCGACG,1.12 ± 0.11
2,ACCATGTTTG,1.012 ± 0.0072
3,GGCCGTAGAA,0.985 ± 0.032
4,ACGCAGTATA,1.05 ± 0.013
5,AAGCTACTGG,1.0513 ± 0.00024
6,GTTTTTTGCC,1 ± 0.034
7,TGCAATTGGG,1.08 ± 0.022
8,CTTTTTCTTT,1.01 ± 0.057
9,TTTACCCCAA,1.15 ± 0.095
10,GTGGTTGGCA,0.968 ± 0.033
11,GAATTTTTGT,0.956 ± 0.018
12,GGGGTGCCCG,0.948 ± 0.018
13,GCAGTATAGC,0.99 ± 0.011
14,CCAGCTTTTT,0.957 ± 0.054
15,GTAGTTCTGC,1 ± 0.018
16,CGATTGGGGG,1.01 ± 0.018
17,GAATGTTAAT,1.04 ± 0.027
18,GTAATAAATT,1.02 ± 0.092
19,TCTCGGGGTG,1.04 ± 0.089
20,CAGGGAACGG,1.05 ± 0.022
21,CACGGATAAA,1.04 ± 0.022
22,CTAGGGAAAC,1.002 ± 0.009
23,ATTTTGTGTG,0.989 ± 0.011
24,CTCTAACGG,0.982 ± 0.089
25,CCTTTTTTGG,1.02 ± 0.021

row,Sequence,switch fluorescence ratio
1,TTGTAGTTGG,0.986 ± 0.058
2,AGTAAGGGGC,0.98 ± 0.019
3,TATGGTGGTT,1.12 ± 0.12
4,TTAGACGGGG,1 ± 0.034
5,GCGAAAAAGC,0.978 ± 0.046
6,AGGGGATGTG,0.97 ± 0.048
7,CATCTGGGCC,1.01 ± 0.022
8,AATCGCTCTG,1.01 ± 0.027
9,TGGCATTTTT,0.991 ± 0.025
10,TAAGGTTGGG,0.993 ± 0.021
11,GAGCAAAGGT,1.04 ± 0.031
12,TGATAGGAAG,1 ± 0.019
13,TTTAATTATG,1.02 ± 0.034
14,ATACGAATTC,1.01 ± 0.049
15,ACGACTTTAG,1.022 ± 0.0014
16,GAAGTTGGAG,0.97 ± 0.053
17,AATCATTTTT,0.986 ± 0.026
18,GATGACACGA,1.033 ± 0.01
19,ATAAACTTGG,1.01 ± 0.033
20,GGAAATTGAG,0.999 ± 0.021
21,TCGTTTAGCA,1.07 ± 0.029
22,CGGTTGTTGT,1.01 ± 0.021
23,GCGGATTTGT,0.998 ± 0.038
24,ACGACTTAGG,1.07 ± 0.017
25,ATTTTAGTTA,1 ± 0.038

row,Sequence,switch fluorescence ratio
1,ATTAGTCCGA,0.9917 ± 0.0089
2,CACTAACCAT,1.09 ± 0.069
3,ATGTGGAGAT,0.977 ± 0.059
4,CAGTTGTTGG,0.984 ± 0.011
5,TTTTTTACCC,1.01 ± 0.028
6,AATGGGCGCT,0.97198 ± 0.00095
7,TCTGGGAAGG,1.01 ± 0.042
8,TTCTAAAGGG,0.984 ± 0.065
9,TTTAGTGGTT,1.02 ± 0.044
10,GGTATTTACA,1.034 ± 0.0033
11,AATGTAGTTG,1.02 ± 0.027
12,GGGAAAACCA,1.01 ± 0.0098
13,GAAATGGAAG,1 ± 0.038
14,TGGGAGATGT,0.993 ± 0.015
15,AATGTAGGGG,1.02 ± 0.045
16,TGGGGATTTT,0.998 ± 0.063
17,GGCGCGATGG,1.55 ± 0.13
18,GAGTTTTTGT,1.01 ± 0.017
19,TCTGCCTTGG,0.984 ± 0.011
20,GAGCTAGTCA,0.975 ± 0.037
21,TCCTACTGTA,1.1974 ± 0.00047
22,CTGTTTTGTG,1.01 ± 0.049
23,GTCTGTTCTT,0.951 ± 0.019
24,TGGGTAAGGC,0.961 ± 0.08
25,AATTGTTATT,0.9919 ± 0.0034

row,Sequence,switch fluorescence ratio
1,TACACCCTTC,1.183 ± 0.011
2,CGTGAGATGC,1.01 ± 0.038
3,AAGGATGTGG,0.977 ± 0.021
4,AAAAATAGTT,1.03 ± 0.07
5,GGGTCAAGGA,0.995 ± 0.019
6,TTGGGTCCTT,0.993 ± 0.026
7,TTGCTCATAA,1 ± 0.032
8,AAGTGTGGGC,0.984 ± 0.023
9,TAATCTTTTT,1.01 ± 0.021
10,TGGAAAAAG,0.989 ± 0.053
11,GGGAGCGTTT,0.981 ± 0.046
12,AGTGATATGA,0.9882 ± 0.0021
13,TCATGAGATT,1.02 ± 0.021
14,GGACCGCCTG,1.01 ± 0.011
15,GGGAAAATCA,0.999 ± 0.02
16,TGGGACGTGG,0.9812 ± 0.0086
17,TTCCCGTGGG,1 ± 0.011
18,TAGGTAGTGG,1.01 ± 0.027
19,CCCCTTGTGT,2.087 ± 0.015
20,GGATAACTCT,1.01 ± 0.015
21,GCTTTAGGAT,1.01 ± 0.04
22,GAGGGATACA,0.99 ± 0.043
23,ATGGTGTCTA,0.981 ± 0.038
24,TATGGCCGTG,0.998 ± 0.061
25,TCAGTGCTTA,1.01 ± 0.038

row,Sequence,switch fluorescence ratio
1,TATTCGGGGG,1.04 ± 0.078
2,TTTTTTAGCT,1.01 ± 0.055
3,GGTTAAATTA,1.01 ± 0.013
4,GGGTGACAGG,0.978 ± 0.017
5,CCCGAGGGTT,1.01 ± 0.017
6,TGTTTCAATT,1.02 ± 0.021
7,AGTTGGAGTT,0.978 ± 0.043
8,AGTTAGAGTC,0.99925 ± 0.00026
9,TTGAGCTAGG,1.01 ± 0.023
10,TGGTGTGAAT,1.01 ± 0.036
11,AAAGGTACGT,0.987 ± 0.021
12,GTGTATAGAT,1.01 ± 0.011
13,GGGTGTACTG,1 ± 0.0089
14,CCAATAGAGT,0.997 ± 0.046
15,CACCTCAGAT,1.05 ± 0.023
16,TAAAGAAGAG,0.977 ± 0.03
17,ATGGGGTACG,0.972 ± 0.06
18,TATGTTTCAA,1.017 ± 0.0089
19,AGGGGGGACA,1.02 ± 0.084
20,GGACAATTTT,0.977 ± 0.0015
21,GGGCAAGCAT,0.999 ± 0.037
22,GAGTTGTGAT,1 ± 0.019
23,TTTGGAATCA,1.008 ± 0.0098
24,TTAATTAAAC,1.013 ± 0.0035
25,TTGTTTTGAT,0.984 ± 0.035

row,Sequence,switch fluorescence ratio
1,TTAGTTTGTT,0.981 ± 0.014
2,AAGGGGTTT,1.03 ± 0.065
3,GATGTAAACC,1.01 ± 0.02
4,ATATGTCAGA,0.9958 ± 0.0056
5,CGTTGCTCGA,0.9992 ± 0.0064
6,CCATGCCGGG,0.979 ± 0.052
7,GATCACAGGG,1.13 ± 0.01
8,GGAAAAGTTG,0.9848 ± 0.0083
9,GGTTTACTG,1.03 ± 0.035
10,GGGCGCAACG,1.05 ± 0.073
11,GTTAGAAGTG,0.9855 ± 0.006
12,GGAGTTCCAG,0.978 ± 0.048
13,GATTGCATGC,1.032 ± 0.0014
14,AAGCCTTTTT,1.01 ± 0.019
15,ATGCGAGCAA,1.11 ± 0.019
16,TAAGATAAAA,1.02 ± 0.017
17,TGAGCTATAT,1.42 ± 0.077
18,ACGTTAAGCG,1.01 ± 0.035
19,TTTAGTTGTG,0.967 ± 0.014
20,CTCGTTCTTT,1 ± 0.031
21,CTGGCTATTG,1.022 ± 0.0028
22,TTCCGAGCTA,2.563 ± 0.0074
23,GGGTACTCGC,1.03 ± 0.065
24,TAAAAATGTT,0.988 ± 0.021
25,AAGTGATGGT,0.9999 ± 0.0069

row,Sequence,switch fluorescence ratio
1,TGAGTCGGGA,1.01 ± 0.014
2,ACGGATTAGG,1.01 ± 0.021
3,GGGTAGATGG,0.9704 ± 0.0062
4,CTGGTATATC,1.063 ± 0.0067
5,GAGGCAGACT,1.23 ± 0.019
6,TTGCGCGGGA,1.02 ± 0.072
7,CAGGGGTTGC,1.01 ± 0.013
8,ACATAGGAAC,1.024 ± 0.004
9,CGGGGGGCCC,0.97 ± 0.024
10,TTCTGCGGCT,1.12 ± 0.039
11,GAGTTACGGC,1.22 ± 0.26
12,GTGTATTTTT,0.99 ± 0.024
13,GATTTCGTAT,0.98 ± 0.014
14,CGGAAAAATT,1.04 ± 0.12
15,ATTAAGTCGT,0.982 ± 0.033
16,TGTTCTTAAG,0.975 ± 0.022
17,TTCATGAGTT,1 ± 0.0022
18,GATTTGTTTG,0.985 ± 0.026
19,ATCAAGGATG,1.03 ± 0.038
20,GGATGGGGGG,0.986 ± 0.016
21,TAGAGGCAGG,0.985 ± 0.018
22,CATGGTTCGC,0.985 ± 0.053
23,TTTTGCTGCC,1.027 ± 0.002
24,ATTGAAATTT,1.05 ± 0.093
25,TTTTTTCATA,0.9974 ± 0.0093

row,Sequence,switch fluorescence ratio
1,TCGCGGGTGG,1.03 ± 0.021
2,TGGTTGTCGC,0.991 ± 0.065
3,GCAGGTTGAC,1.034 ± 0.003
4,GTTTGAATAT,0.984 ± 0.047
5,TGTTCTAGGT,1.014 ± 0.0018
6,TGGAGGCTTT,1.009 ± 0.0073
7,GTGTAAGGG,1.03 ± 0.031
8,AGACTGCCTG,0.971 ± 0.077
9,CCGGGGGGAA,1.03 ± 0.063
10,CTTAGTGAAA,0.988 ± 0.029
11,CAGTGAGGGT,0.981 ± 0.019
12,TTGAGGAATG,1.02 ± 0.018
13,CTACATGAAA,1.006 ± 0.0034
14,GGTAACTTTG,0.989 ± 0.031
15,AATAGCATTG,0.972 ± 0.029
16,GGAAGTCGTT,0.994 ± 0.016
17,AATATGTTTT,1.01 ± 0.026
18,TTGAGATTGC,0.98 ± 0.027
19,GGGTGGTGGC,0.964 ± 0.082
20,TTTCTTGGCT,1.2 ± 0.38
21,ACATGAGGTG,1.18 ± 0.064
22,TTTAGTAGCT,1 ± 0.032
23,GTCGTAACAG,0.9857 ± 0.0047
24,TAAATAGCTT,1.08 ± 0.17
25,TAGGGGGCTG,1.01 ± 0.02
